First the molecules themselves.
B1: glmS ribozyme (parent)
chain: AUAAAAGCGCCAGAACUACAGAAAUGUAGUUGACGAGGAGGAGGUUUAUCGAAUUUUCGGCGGAUGCCUCCAAA

Details in all cases: with glucosamine-6-phosphate
Variants of B1 are the subject of data set [1]. The experiment in a line: self-cleavage kobs at 40 uM GlcN6P; higher = faster cleavage; RNA array. The method, boiled down:
(§1)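 kobs was derived by fitting per-tile medians to one- or two-exponential decays after normalising signals to baseline and to non-cleaving reference variants. Those signals came from barcoded ribozyme variants transcribed in situ by E. coli RNA polymerase on sequenced MiSeq chips, followed through a hybridised Cy3 probe at 37 °C and imaged over ~14 h. Glucosamine-6-phosphate (40 μM to 10 mM) in HEPES/KCl/Mg(OAc)2 buffer was flowed in. Weighted Michaelis–Menten fits across concentrations then gave kcat and KM.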

In data set [2] the parent is B1. The experiment in a line: self-cleavage kobs at 160 uM GlcN6P; higher = faster cleavage; RNA array. The method, boiled down: as §1
In data set [3] the parent is B1. The experiment in a line: self-cleavage kobs at 640 uM GlcN6P; higher = faster cleavage; RNA array. The method, boiled down:
as §1

Variants of B1 are the subject of data set [4]. Put plainly: self-cleavage kobs at 2500 uM GlcN6P; higher = faster cleavage; RNA array. A digest of the protocol:
as §1

Data set [5] covers variants of B1. The experiment in a line: self-cleavage kobs at 10000 uM GlcN6P; higher = faster cleavage; RNA array. The method, boiled down: as §1

± gives the standard error. Variants at the floor of the assay were thinned out.

In the case of AUAAAAGCGACAGAACUACAGAAAUGUAGUUGACGAGGAGGAGGUUUAUGGAAUUUUCGGCGGAUGCCUCCAAA [C10A C50G], in data set [1], the “self-cleavage kobs at 40 uM GlcN6P” value was found to be 7.92e-05 ± 1.7e-05 s⁻¹. Besides, the “self-cleavage kobs at 160 uM GlcN6P” value in data set [2] amounted to 0.000235 ± 5.6e-05 s⁻¹. For the same variant, the “self-cleavage kobs at 640 uM GlcN6P” value in data set [3] stood at 0.000189 ± 4.1e-05 s⁻¹. Also, the “self-cleavage kobs at 2500 uM GlcN6P” value in data set [4] was 0.000174 ± 3.5e-05 s⁻¹. Besides, the “self-cleavage kobs at 10000 uM GlcN6P” value in data set [5] was 6.81e-05 ± 1.2e-05 s⁻¹.

Take AUAAAAGCUCCAGAACUACAGAAAUGUAGUUGACGAGGAGGAGGUUUAUCGAAUUUUCGGCGGAUGCAUCCAAA [G9U C68A]: the “self-cleavage kobs at 40 uM GlcN6P” value in data set [1] was less than 1e-05 s⁻¹. In addition, in data set [2], the “self-cleavage kobs at 160 uM GlcN6P” value was less than 1e-05 s⁻¹. Also, the “self-cleavage kobs at 2500 uM GlcN6P” value in data set [4] is less than 1e-05 s⁻¹. In addition, the “self-cleavage kobs at 10000 uM GlcN6P” value in data set [5] was less than 1e-05 s⁻¹.

Take AUAAAAGCGCCAGAACUACAGAAAUGUAGGUGACGAGGAGGAGGUUUAUGGAAUUUUCGGCGGAUGCCUCCAAA [U30G C50G]: in data set [1], the “self-cleavage kobs at 40 uM GlcN6P” value was found to be 0.000146 ± 6.1e-05 s⁻¹. In addition, the “self-cleavage kobs at 160 uM GlcN6P” value in data set [2] came out at 7.58e-05 ± 2.1e-05 s⁻¹. Also, the “self-cleavage kobs at 640 uM GlcN6P” value in data set [3] came to 7e-05 ± 2.2e-05 s⁻¹. The “self-cleavage kobs at 2500 uM GlcN6P” value in data set [4] was determined as 0.000109 ± 2.3e-05 s⁻¹.

For AUAAAAGCGCGAGAACUACAGAAAUGUAGUUGACGAGGAGGAGGUUUAUCGAAUUUACGGCGGAUGCCUCCAAA [C11G U57A], in data set [1], the “self-cleavage kobs at 40 uM GlcN6P” value was less than 1e-05 s⁻¹. The “self-cleavage kobs at 160 uM GlcN6P” value in data set [2] is less than 1e-05 s⁻¹. The “self-cleavage kobs at 640 uM GlcN6P” value in data set [3] was less than 1e-05 s⁻¹.

With AUAAAAGCGCCAGAACUACAGAAAUGUAGUUGACGAGGAGGAGGUUUAUCGAAUUUUCGUCGGAUGCCUCUAAA [G60U C71U], the “self-cleavage kobs at 40 uM GlcN6P” value in data set [1] was less than 1e-05 s⁻¹. In addition, the “self-cleavage kobs at 160 uM GlcN6P” value in data set [2] was less than 1e-05 s⁻¹. For the same variant, the “self-cleavage kobs at 640 uM GlcN6P” value in data set [3] was less than 1e-05 s⁻¹. Besides, the “self-cleavage kobs at 10000 uM GlcN6P” value in data set [5] is less than 1e-05 s⁻¹.

As to AUAAAAGCGCCUGAACUACAGAAAUGUAGUUGACGAGGAGGAGGUUUAUCGAAUUUUCGGCGAAUGCCUCCAAA [A12U G63A], the “self-cleavage kobs at 40 uM GlcN6P” value in data set [1] was less than 1e-05 s⁻¹. For the same variant, the “self-cleavage kobs at 160 uM GlcN6P” value in data set [2] is less than 1e-05 s⁻¹. In addition, the “self-cleavage kobs at 640 uM GlcN6P” value in data set [3] is less than 1e-05 s⁻¹. Moreover, the “self-cleavage kobs at 2500 uM GlcN6P” value in data set [4] was less than 1e-05 s⁻¹. Also, the “self-cleavage kobs at 10000 uM GlcN6P” value in data set [5] is less than 1e-05 s⁻¹.

As for AUAAAAGCGCCAGACCUACAGAAAUGUAGUUGACGAGGAGGAGGUUUAUGGAGUUUUCGGCGGAUGCCUCCAAA [A15C C50G A53G], in data set [1], the “self-cleavage kobs at 40 uM GlcN6P” value is 7e-05 ± 2.9e-05 s⁻¹.

Take AUAAAAGCGCCAGAACUACAGAAAUGUAGUUGACGAGGACGAGGUUUAUCGAAUUUUCGGCUGAUGCCUCCAAA [G40C G62U]: the “self-cleavage kobs at 40 uM GlcN6P” value in data set [1] is less than 1e-05 s⁻¹. The “self-cleavage kobs at 160 uM GlcN6P” value in data set [2] was less than 1e-05 s⁻¹. Further, the “self-cleavage kobs at 640 uM GlcN6P” value in data set [3] is less than 1e-05 s⁻¹. The “self-cleavage kobs at 2500 uM GlcN6P” value in data set [4] was less than 1e-05 s⁻¹. In addition, in data set [5], the “self-cleavage kobs at 10000 uM GlcN6P” value was less than 1e-05 s⁻¹.

With AUAAAAGCCUCAGAACUACAGAAAUGUAGUUGACGAUGAGGAGGUUUAUCGAAUUUUCGGCGGAUGCCUCCAAA [G9C C10U G37U], the “self-cleavage kobs at 40 uM GlcN6P” value in data set [1] is less than 1e-05 s⁻¹. The “self-cleavage kobs at 640 uM GlcN6P” value in data set [3] was less than 1e-05 s⁻¹.

AUAAAAGCGCCAGAACUACAGAAAUGUAGUUGACGAGGAUCGGGUUUAUCGGAUUGUCGUCGGAUGCCUCCAAA [G40U G41C A42G A52G U56G G60U]: the “self-cleavage kobs at 40 uM GlcN6P” value in data set [1] is less than 1e-05 s⁻¹. Besides, the “self-cleavage kobs at 640 uM GlcN6P” value in data set [3] was less than 1e-05 s⁻¹. Besides, the “self-cleavage kobs at 2500 uM GlcN6P” value in data set [4] was less than 1e-05 s⁻¹.

As for AUAAAAGCGCCAGAACUACAGAAAUGUAGUGCACGAGUAGGAUGUUUAUCGAAUUUUCAGCGAAUGCCACCAAA [U31G G32C G38U G43U G59A G63A U69A], the “self-cleavage kobs at 40 uM GlcN6P” value in data set [1] is less than 1e-05 s⁻¹.

With AUAAAAGCGCCAGCUCUACAGAAAUGUAGUUGACGAGGAGGAGGUUCAUCGAAUUUUCGGCGGAUGCCUCCAAA [A14C A15U U47C], the “self-cleavage kobs at 40 uM GlcN6P” value in data set [1] was less than 1e-05 s⁻¹.

For the variant AUAAAAGCGCCAGAACUACAGAAAUGUAGUUGACGAGGAGGAGGUUUAUGGAAUUUUCGGCGGAUGCUUCCAAA [C50G C68U], the “self-cleavage kobs at 40 uM GlcN6P” value in data set [1] stood at 0.000168 ± 2.2e-05 s⁻¹. For the same variant, in data set [2], the “self-cleavage kobs at 160 uM GlcN6P” value is 0.000233 ± 4.2e-05 s⁻¹. Besides, the “self-cleavage kobs at 640 uM GlcN6P” value in data set [3] was 0.00021 ± 2.4e-05 s⁻¹. The “self-cleavage kobs at 2500 uM GlcN6P” value in data set [4] came out at 0.000189 ± 2e-05 s⁻¹. In addition, the “self-cleavage kobs at 10000 uM GlcN6P” value in data set [5] came to 0.000128 ± 1.3e-05 s⁻¹.

Regarding AUAAAAGCGCCACAACUACAGAAAUGUAGUUGACGAGGAGGAGGUUUAUCGAAUUUUCGCCGGAUGCCUCCAAA [G13C G60C], in data set [1], the “self-cleavage kobs at 40 uM GlcN6P” value is less than 1e-05 s⁻¹. Moreover, in data set [2], the “self-cleavage kobs at 160 uM GlcN6P” value was less than 1e-05 s⁻¹. The “self-cleavage kobs at 10000 uM GlcN6P” value in data set [5] is less than 1e-05 s⁻¹.

For the variant AUAAAAGCGCCAUAACUACAGAAAUGUAGUUGACGAGGAGGAGGUUUAUCGAAUUUUCGGUGGAUGCCUCCAAA [G13U C61U], the “self-cleavage kobs at 40 uM GlcN6P” value in data set [1] was less than 1e-05 s⁻¹. Also, the “self-cleavage kobs at 160 uM GlcN6P” value in data set [2] is less than 1e-05 s⁻¹. The “self-cleavage kobs at 640 uM GlcN6P” value in data set [3] was less than 1e-05 s⁻¹. Besides, in data set [5], the “self-cleavage kobs at 10000 uM GlcN6P” value was less than 1e-05 s⁻¹.

As to AUAAAAGCGCCAGAACUACAGAAAUGUAGUUGACGAGGAGGAGUUUUAUCGAAUUUUCGGCGGAUUCCUCCAAA [G44U G66U], the “self-cleavage kobs at 40 uM GlcN6P” value in data set [1] was less than 1e-05 s⁻¹. In addition, in data set [2], the “self-cleavage kobs at 160 uM GlcN6P” value was less than 1e-05 s⁻¹. For the same variant, the “self-cleavage kobs at 640 uM GlcN6P” value in data set [3] was less than 1e-05 s⁻¹. In addition, in data set [4], the “self-cleavage kobs at 2500 uM GlcN6P” value was less than 1e-05 s⁻¹. In data set [5], the “self-cleavage kobs at 10000 uM GlcN6P” value was less than 1e-05 s⁻¹.

Turning to AUAAAAGCGCCAGAACUACAGAAAUGUAGUUGACGAGGAGGAGGUUUAUCGAAGUUUCGGCGGAUGCUUCCAAA [U54G C68U], the “self-cleavage kobs at 40 uM GlcN6P” value in data set [1] was 0.000327 ± 2.5e-05 s⁻¹. The “self-cleavage kobs at 160 uM GlcN6P” value in data set [2] was found to be 0.000869 ± 0.00021 s⁻¹. Moreover, the “self-cleavage kobs at 640 uM GlcN6P” value in data set [3] was found to be 0.000824 ± 0.00012 s⁻¹. Moreover, in data set [4], the “self-cleavage kobs at 2500 uM GlcN6P” value stood at 0.0036 ± 0.00084 s⁻¹. Further, the “self-cleavage kobs at 10000 uM GlcN6P” value in data set [5] came to 0.00395 ± 0.00053 s⁻¹.

In the case of AUAAAAGUGCCAGAACUACAGAAAUGUAGUUGACGAGGAGGAGGUUUGUCGAAUUUUCGGCGGAUGCCUUCAAA [C8U A48G C70U], in data set [1], the “self-cleavage kobs at 40 uM GlcN6P” value was less than 1e-05 s⁻¹. Besides, the “self-cleavage kobs at 640 uM GlcN6P” value in data set [3] is less than 1e-05 s⁻¹. Besides, the “self-cleavage kobs at 10000 uM GlcN6P” value in data set [5] is less than 1e-05 s⁻¹.

Regarding AUAAAAGCUCCAGAGCUACAGAAAUGUAGUUGACGAGGAGGAGGUUUAUCGAAUUUUCGGCGGAUGCCUCCAAA [G9U A15G], the “self-cleavage kobs at 40 uM GlcN6P” value in data set [1] is less than 1e-05 s⁻¹. The “self-cleavage kobs at 640 uM GlcN6P” value in data set [3] is less than 1e-05 s⁻¹. The “self-cleavage kobs at 2500 uM GlcN6P” value in data set [4] is less than 1e-05 s⁻¹.

As to AUAAAAGCGCCAGAACUACAGAAAUGUAGUUGACGAGGAGGAGGUUUAUCGAAUUUUCGUCGUAUGCCUCCAAA [G60U G63U], the “self-cleavage kobs at 40 uM GlcN6P” value in data set [1] is less than 1e-05 s⁻¹. In data set [2], the “self-cleavage kobs at 160 uM GlcN6P” value is less than 1e-05 s⁻¹. Moreover, the “self-cleavage kobs at 640 uM GlcN6P” value in data set [3] was less than 1e-05 s⁻¹. Also, the “self-cleavage kobs at 10000 uM GlcN6P” value in data set [5] was less than 1e-05 s⁻¹.

On to AUAAAAGCGCCAGAACUACAGAAAUGUAGUUGAAGAGGCGGAGGUUUAUCGAAUUUUCGGCGGAUGCCUCCAAA [C34A A39C], for which, in data set [1], the “self-cleavage kobs at 40 uM GlcN6P” value is less than 1e-05 s⁻¹. Besides, the “self-cleavage kobs at 160 uM GlcN6P” value in data set [2] was less than 1e-05 s⁻¹. Also, the “self-cleavage kobs at 2500 uM GlcN6P” value in data set [4] was less than 1e-05 s⁻¹. For the same variant, the “self-cleavage kobs at 10000 uM GlcN6P” value in data set [5] was less than 1e-05 s⁻¹.
